Protein stability index data for 94 variants are collected here from the supplement of paper PMC10567573.

The labels stand for the following.
B1: FBXO39 (parent)
chain: RVFKARIYTNRYETNEEDKTLQEI
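Also: lentivirally expressed fusions sorted by FACS into six bins by GFP to DsRed ratio, PSI derived from sequencing read proportions per bin multiplied by bin number.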

Variants of B1 are the subject of this data set. As to the kind of experiment: protein stability index of a GFP-peptide fusion (GPS, HEK-293T) (PSI 1-6); higher = more stable. The note with it: c terminus: a fixed tail appended.
In the case of RVFKARIYTSRYETNEEDKTLQEI, the protein stability index came to 3.06.

Turning to RVFKARIYTKRYETNEEDKTLQEI, the protein stability index came out at 3.01.

RVFKARIYTPRYETNEEDKTLQEI: the protein stability index was 2.21.

Regarding RVFKARIYTWRYETNEEDKTLQEI, the protein stability index was 2.2.

As for RVFKARIYTLRYETNEEDKTLQEI, the protein stability index is 2.11.

Regarding RVFKARIYTHRYETNEEDKTLQEI, the protein stability index was found to be 2.82.

For RVFKARIYTFRYETNEEDKTLQEI, the protein stability index was 1.93.

In the case of RVFKARIYTQRYETNEEDKTLQEI, the protein stability index is 3.36.

As to RVFKARIYTDRYETNEEDKTLQEI, the protein stability index turned out to be 2.61.

On to RVFKARIYTERYETNEEDKTLQEI, for which the protein stability index is 3.31.

As to RVFKARIYTMRYETNEEDKTLQEI, the protein stability index came to 3.04.

Regarding RVFKARIYTARYETNEEDKTLQEI, the protein stability index came to 2.31.

For RVFKARIYTTRYETNEEDKTLQEI, the protein stability index was found to be 2.45.

As for RVFKARIYTVRYETNEEDKTLQEI, the protein stability index was 2.15.

As to RVFKARIYTNRYEHNEEDKTLQEI, the protein stability index amounted to 2.5.

In the case of RVFKARIYTNRYEYNEEDKTLQEI, the protein stability index was 2.67.

In the case of RVFKARIYTNRYEWNEEDKTLQEI, the protein stability index was found to be 1.66.

Take RVFKARIYTNRYESNEEDKTLQEI: the protein stability index was 3.12.

As to RVFKARIYTNRYENNEEDKTLQEI, the protein stability index is 2.21.

Regarding RVFKARIYTNRYEENEEDKTLQEI, the protein stability index came to 2.62.

As for RVFKARIYTNRYEPNEEDKTLQEI, the protein stability index stood at 3.2.

For RVFKARIYTNRYEVNEEDKTLQEI, the protein stability index turned out to be 2.06.

Turning to RVFKARIYTNRYELNEEDKTLQEI, the protein stability index was 3.06.

Take RVFKARIYTNRYERNEEDKTLQEI: the protein stability index is 2.36.

As for RVFKARIYTNRYEQNEEDKTLQEI, the protein stability index turned out to be 2.62.

RVFKARIYTNRYEDNEEDKTLQEI: the protein stability index is 3.34.

As for RVFKARIYTNRYEFNEEDKTLQEI, the protein stability index worked out at 2.52.

For the variant RVFKARIYTNRYEANEEDKTLQEI, the protein stability index turned out to be 1.65.

In the case of RVFKARIYTNRYEGNEEDKTLQEI, the protein stability index worked out at 2.29.

On to RVFKARIYTNRYEKNEEDKTLQEI, for which the protein stability index came to 2.5.

As for RVFKARIYTNRYEINEEDKTLQEI, the protein stability index came to 2.28.

With RVFKARIYTNRYECNEEDKTLQEI, the protein stability index was determined as 2.

On to RVFKARIYTNRYEMNEEDKTLQEI, for which the protein stability index was 3.75.

Take RVFKARIYTNRYETNNEDKTLQEI: the protein stability index turned out to be 1.74.

As to RVFKARIYTNRYETNREDKTLQEI, the protein stability index was determined as 2.33.

Take RVFKARIYTNRYETNQEDKTLQEI: the protein stability index amounted to 2.08.

On to RVFKARIYTNRYETNYEDKTLQEI, for which the protein stability index was 1.29.

On to RVFKARIYTNRYETNLEDKTLQEI, for which the protein stability index is 1.75.

Consider RVFKARIYTNRYETNDEDKTLQEI, for which the protein stability index stood at 2.88.

For the variant RVFKARIYTNRYETNTEDKTLQEI, the protein stability index was determined as 2.28.

As for RVFKARIYTNRYETNHEDKTLQEI, the protein stability index was 2.58.

As for RVFKARIYTNRYETNAEDKTLQEI, the protein stability index worked out at 2.2.

For the variant RVFKARIYTNRYETNGEDKTLQEI, the protein stability index amounted to 2.33.

On to RVFKARIYTNRYETNWEDKTLQEI, for which the protein stability index amounted to 2.27.

Consider RVFKARIYTNRYETNSEDKTLQEI, for which the protein stability index came to 2.6.

For the variant RVFKARIYTNRYETNFEDKTLQEI, the protein stability index amounted to 1.45.

In the case of RVFKARIYTNRYETNVEDKTLQEI, the protein stability index came to 1.92.

Turning to RVFKARIYTNRYETNPEDKTLQEI, the protein stability index was 1.89.

With RVFKARIYTNRYETNIEDKTLQEI, the protein stability index is 3.1.

As for RVFKARIYTNRYETNCEDKTLQEI, the protein stability index came out at 2.38.

Regarding RVFKARYYTNRYETNEEDKTLQEI, the protein stability index worked out at 2.39.

RVFKARHYTNRYETNEEDKTLQEI: the protein stability index is 2.54.

RVFKARSYTNRYETNEEDKTLQEI: the protein stability index stood at 3.39.

In the case of RVFKARTYTNRYETNEEDKTLQEI, the protein stability index is 3.

For the variant RVFKARPYTNRYETNEEDKTLQEI, the protein stability index is 4.12.

Take RVFKARQYTNRYETNEEDKTLQEI: the protein stability index came to 2.74.

Turning to RVFKARWYTNRYETNEEDKTLQEI, the protein stability index was 3.15.

With RVFKARNYTNRYETNEEDKTLQEI, the protein stability index stood at 2.7.

On to RVFKARKYTNRYETNEEDKTLQEI, for which the protein stability index is 2.24.

As for RVFKARRYTNRYETNEEDKTLQEI, the protein stability index is 2.43.

Turning to RVFKARMYTNRYETNEEDKTLQEI, the protein stability index was 2.67.

Consider RVFKARLYTNRYETNEEDKTLQEI, for which the protein stability index amounted to 2.9.

Turning to RVFKARIYTNRPETNEEDKTLQEI, the protein stability index came out at 2.91.

Turning to RVFKARIYTNRGETNEEDKTLQEI, the protein stability index worked out at 3.13.

On to RVFKARIYTNRWETNEEDKTLQEI, for which the protein stability index was found to be 2.34.

In the case of RVFKARIYTNREETNEEDKTLQEI, the protein stability index was determined as 3.58.

In the case of RVFKARIYTNRSETNEEDKTLQEI, the protein stability index was determined as 3.36.

With RVFKARIYTNRAETNEEDKTLQEI, the protein stability index turned out to be 3.15.

Consider RVFKARIYTNRHETNEEDKTLQEI, for which the protein stability index was 2.79.

As for RVFKARIYTNRTETNEEDKTLQEI, the protein stability index was 3.29.

RVFKARIYTNRLETNEEDKTLQEI: the protein stability index stood at 2.1.

Turning to RVFKARIYTNRDETNEEDKTLQEI, the protein stability index is 3.89.

Regarding RVFKARIYTNRMETNEEDKTLQEI, the protein stability index came out at 2.13.

RVFKARIYTNRCETNEEDKTLQEI: the protein stability index stood at 2.07.

Take RVFKARIYTNRQETNEEDKTLQEI: the protein stability index worked out at 3.88.

Regarding RVFKARIYTNRNETNEEDKTLQEI, the protein stability index is 3.13.

Consider RVFKARIYTNRIETNEEDKTLQEI, for which the protein stability index is 3.29.

With RVFKARIYTNRFETNEEDKTLQEI, the protein stability index is 3.33.

RVFKARIYTNRKETNEEDKTLQEI: the protein stability index turned out to be 2.99.

On to RVFKARIYTNRYETNEHDKTLQEI, for which the protein stability index came to 2.02.

With RVFKARIYTNRYETNEKDKTLQEI, the protein stability index worked out at 2.24.

Consider RVFKARIYTNRYETNEMDKTLQEI, for which the protein stability index was determined as 1.89.

In the case of RVFKARIYTNRYETNEFDKTLQEI, the protein stability index stood at 1.63.

On to RVFKARIYTNRYETNELDKTLQEI, for which the protein stability index amounted to 2.41.

RVFKARIYTNRYETNEPDKTLQEI: the protein stability index came out at 2.41.

As to RVFKARIYTNRYETNETDKTLQEI, the protein stability index was determined as 2.83.

On to RVFKARIYTNRYETNEGDKTLQEI, for which the protein stability index came out at 1.4.

Consider RVFKARIYTNRYETNERDKTLQEI, for which the protein stability index stood at 2.43.

In the case of RVFKARIYTNRYETNEIDKTLQEI, the protein stability index was determined as 1.59.

With RVFKARIYTNRYETNESDKTLQEI, the protein stability index amounted to 2.1.

On to RVFKARIYTNRYETNENDKTLQEI, for which the protein stability index was determined as 1.98.

On to RVFKARIYTNRYETNEQDKTLQEI, for which the protein stability index is 2.33.

Regarding RVFKARIYTNRYETNECDKTLQEI, the protein stability index is 2.03.

With RVFKARIYTNRYETNEDDKTLQEI, the protein stability index was 3.12.
